We go through twelve molecules from patent publication US20250257130A1 (NONA BIOSCIENCES SUZHOU, published 2025).

Where a chain is given by its changes, count along the chain named.

First the molecules themselves.
B1: PR303199 (antibody, human IgG1, V domains shown)
VH: EVQLVESGGGLVKPGGSLRLSCAASGFTFSDYYMSWIRQAPGKGLEWIAYISSSGSTIYYADSVKGRFTISRDNAKNSLYLQMNSLRAEDTAIYYCAREYYGSENYDHFDYWGQGTLVTVSS
notes: HCAb (heavy chain-only, human IgG1 Fc), no light chain
B2: PR303155 (antibody, human IgG1, V domains shown)
VH: EVQLVESGGGLVKPGGSLRLSCAASGFTLSDYYMSWIRQAPGKGLEWISYISSNGSTIYYADSVKGRFTISRDNARNSLYLQMNSLRAEDTALYYCARDVSSGWYEDFDYWGQGTLVTVSS
notes: as for B1
B3: PR303145 (antibody, human IgG1, V domains shown)
VH: QVQLVESGGGLVKPGGSLRISCAASGFTFSNYNMSWIRQAPGKGVEWVSHISGSGRTIYYAESVKGRFTISRDNAKNSLYLQMNSLRAEDTAMYYCARDLSSGWYEDFDYWGQGTLVTVSS
notes: as for B1
B4: PR005339 (antibody, human IgG1, V domains shown)
VH: B2 VH with R19K, L29F, L45V, S53N, Y59H, R76K, L93V, V100F, S101N, S102N
notes: as for B1
B5: PR005342 (antibody, human IgG1, V domains shown)
VH: EVQLVESGGGLVKPGGSLRLSCAASGFNFSDYYMSWIRQAPGKGLEWISYISNSSSTIYYADSVKGRFTISRDNAKNSLYLQMSRLRAEDTAMYYCARDTTNGWYEDFDYWGQGTLVTVSS
notes: as for B1
B6: PR005343 (antibody, human IgG1, V domains shown)
VH: EVQLVESGGGLVKPGGSLRLSCVASGFTFSDYYMSWIRQAPGKGMEWISYISSSGSTKNYANSVKGRFTISRDNAKNSLYLQMNSLRAEDTAAYYCARVPPYNASWYEDFDYWGQGTLVTVSS
notes: as for B1
B7: PR005347 (antibody, human IgG1, V domains shown)
VH: B6 VH with A24T, S53T, S54T, N77S, Y102S
notes: as for B1
B8: PR005346 (antibody, human IgG1, V domains shown)
VH: EVQLVESGGGLVKPGGSLRLSCAASGFTLSDYYMSWIRQAPGKGLEWVSNISKNGFTIYYAESVKGRFTVSRDNAKNSLYLQMNSLRAEDTAIYYCARDSSGWYSEFDYWGQGTLVTVSS
notes: as for B1
B9: PR005350 (antibody, human IgG1, V domains shown)
VH: EVQLVESGGGLVKPGGSLRLSCAASGFTLSDSQMSWIRQAPGKGVEWVSYISSSGNTIYYGDSVKGRFTISRDNAKNSLFLQMNSLRAEDTAVYYCARVPPSSSNWYEDFDIWGQGTLVTVSS
notes: as for B1
B10: PR005345 (antibody, human IgG1, V domains shown)
VH: EVQLVESGGGLVKPGGSLRLSCAASGFTFSDYYMSWIRQAPGKGLEWIAYISSSGSTIHYSDSVKGRFTISRDNAKNSLYLQMNSLRAEDTAVYYCARDTPSSSSDWVSLQFDYWGQGTPVTVSS
notes: as for B1
B11: PR005348 (antibody, human IgG1, V domains shown)
VH: EVQLVESGGGLVKPGGSLRLSCAASGFTFSDYYMSWIRQTPGKGLEWVSYISRSGSTKYYADSVKGRFTISRDNAKNSLYLQMNSLRAEDTAVYYCARDAPSSNSDWVSLHFDHWGQGTLVTVSS
notes: as for B1
B12: PR007421 (antibody, V domains shown)
VH: EVQLVESGGGLVKPGGSLRLSCAASGFTFSDFYMSWIRQAPGKGLEWISYIDSSGRPLAYADSVKGRFTISRDNAKNSLYLQMNSLRAEDTAIYYCARDMPSSSSDWVSLQFDYWGQGTLVTVSS
notes: bivalent form (HCAb) variant of PR005340, no light chain

T4 sequence (Q01974 34-403): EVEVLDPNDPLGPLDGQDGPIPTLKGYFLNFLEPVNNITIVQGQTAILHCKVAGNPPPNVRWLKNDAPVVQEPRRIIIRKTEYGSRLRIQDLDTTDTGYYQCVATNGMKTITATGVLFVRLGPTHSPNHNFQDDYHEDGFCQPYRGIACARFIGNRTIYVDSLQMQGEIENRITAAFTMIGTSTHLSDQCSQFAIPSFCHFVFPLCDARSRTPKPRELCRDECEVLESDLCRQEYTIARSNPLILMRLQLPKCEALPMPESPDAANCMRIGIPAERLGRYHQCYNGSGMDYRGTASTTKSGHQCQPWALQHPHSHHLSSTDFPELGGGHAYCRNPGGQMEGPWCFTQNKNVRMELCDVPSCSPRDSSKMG
T2 sequence (Q01973 30-406): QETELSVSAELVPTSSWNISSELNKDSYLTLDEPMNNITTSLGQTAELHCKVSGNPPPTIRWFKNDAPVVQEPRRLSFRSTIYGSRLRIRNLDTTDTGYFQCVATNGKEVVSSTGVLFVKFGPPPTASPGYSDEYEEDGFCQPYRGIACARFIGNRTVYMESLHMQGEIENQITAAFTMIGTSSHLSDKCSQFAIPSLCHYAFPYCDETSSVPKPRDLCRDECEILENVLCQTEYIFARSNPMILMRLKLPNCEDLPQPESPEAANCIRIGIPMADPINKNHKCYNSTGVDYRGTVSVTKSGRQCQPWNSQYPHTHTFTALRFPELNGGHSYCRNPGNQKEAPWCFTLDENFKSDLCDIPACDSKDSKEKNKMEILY

The target of one experiment is T1, cynomolgus ROR1 on CHO-K1-cynoROR1 cells (cynomolgus monkey, UniProt A0A2K5WTX7 30-937).
T1 construct: whole, on cells
The experiment in a line: flow cytometry, CHO-K1-cynoROR1 cells. How it is done: (§1) In brief, anti-ROR1 antibodies were serially diluted in staining buffer (PBS containing 2% FBS). Antibody solution was incubated with 1×10⁵ cells at 4° C. for 1 hour. […] After 1-hour incubation at 4° C., cells were washed twice with staining buffer and subjected to flow cytometry. PR000374 (Bench marker 1) and non-relevant IgG isotype control (Crownbio) were used as positive and negative controls, respectively.
As to B1, the EC50 stood at 1.43 mg/L and the “MAX(MFI)” value was found to be 6.85e+06 MFI.

As to B2, the concentration giving a half-maximal response (EC50) stood at 0.804 mg/L and the “MAX(MFI)” value was found to be 1.1e+07 MFI.

With B3, the EC50 was 0.474 mg/L and the “MAX(MFI)” value was determined as 1.04e+07 MFI.

A further experiment concerns the target T2, Human ROR1-ECD-his (Acro Biosystems RO1-H522y) (human, UniProt Q01973 30-406).
T2 construct: extracellular domain; bought protein; also called hROR1-ECD-his; hu-ROR1-ECD-his
The experiment in a line: ELISA, coated hu-ROR1-ECD-his. As to the method: (§2) Binding of recombinant anti-ROR1 antibodies to hu-ROR1-ECD-his was tested by ELISA. In brief, 1 μg/mL hu-ROR1-ECD-his was added to the 96-well plate, 100 μL each well, incubated at 4° C. overnight, washing the plates with 1×PBST 3 times, 300 ul/well, blocking the plates with 2% BSA in 1×PBST, 200 ul/well at 37° C. for 1 hour, anti-ROR1 antibodies were serially diluted in staining buffer (PBS containing 2% BSA). Antibody solution was added to the plate and incubates at 37° C. for 1 hour, washing the plates with 1×PBST 3 times, 300 ul/well, adding secondary antibody 100 ul/well and incubate at 37° C. for 1 hour, washing the plates with 1×PBST 3 times, 300 ul/well and then add 100 ul/well TMB for about 5 min, stop the reaction by adding 100 ul/well 2M H₂SO₄, read the plates with Molecular device spectra max plus384 at 450 nm and 570 nm.
(In general: ELISA stands for enzyme-linked immunosorbent assay.)
B1 displayed a 50% effective concentration (EC50) of 0.006 mg/L.

For the molecule B2, the EC50 is 0.002 mg/L.

Take B3: the 50% effective concentration (EC50) was 0.002 mg/L.

A further experiment deals with T1, cynomolgus ROR1 on CHO-K1-cynoROR1 cells. The experiment in a line: flow cytometry on CHOK1-cynoROR1 cells, MFI (APC-A Median) [top panel]. As to the method:
(§3) Binding of recombinant anti-ROR1 antibodies to human or cynomolgus ROR1-overexpressing cells was tested by flow cytometry. In this example, ROR1-expressing cell lines are HEK293T cell lines that had been transfected to express human ROR1 on the surface (HEK293T-hu ROR1, KYINNO BIOTECHNOLOGY CO., LTD, Catalog #KC-1018), CHO-K1 cell lines that had been transfected to express cynomolgus ROR1 (CHOK1-cyno ROR1), PANC-1 (ATCC, catalog: CRL-1469) or A549 cell lines (Shanghai Institute of Biochemistry and Cell Biology, Chinese Academy of Sciences).
as §1
Consider B4, for which the “EC50 (read off the curve)” value is about 4 nM.

For B5, the “EC50 (read off the curve)” value was about 7 nM.

Consider B6, for which the concentration for a half-maximal effect (EC50 (read off the curve)) was about 4 nM.

As to B7, the concentration for a half-maximal effect (EC50 (read off the curve)) was about 10 nM.

The target in the next experiment is T3, human ROR1 on cells (HEK293T-hROR1, PANC-1, A549) (human, UniProt Q01973 30-937).
T3 construct: whole, on cells; one molecule for the three cell lines; also called huROR1; cell surface ROR1
T3 sequence (Q01973 30-937): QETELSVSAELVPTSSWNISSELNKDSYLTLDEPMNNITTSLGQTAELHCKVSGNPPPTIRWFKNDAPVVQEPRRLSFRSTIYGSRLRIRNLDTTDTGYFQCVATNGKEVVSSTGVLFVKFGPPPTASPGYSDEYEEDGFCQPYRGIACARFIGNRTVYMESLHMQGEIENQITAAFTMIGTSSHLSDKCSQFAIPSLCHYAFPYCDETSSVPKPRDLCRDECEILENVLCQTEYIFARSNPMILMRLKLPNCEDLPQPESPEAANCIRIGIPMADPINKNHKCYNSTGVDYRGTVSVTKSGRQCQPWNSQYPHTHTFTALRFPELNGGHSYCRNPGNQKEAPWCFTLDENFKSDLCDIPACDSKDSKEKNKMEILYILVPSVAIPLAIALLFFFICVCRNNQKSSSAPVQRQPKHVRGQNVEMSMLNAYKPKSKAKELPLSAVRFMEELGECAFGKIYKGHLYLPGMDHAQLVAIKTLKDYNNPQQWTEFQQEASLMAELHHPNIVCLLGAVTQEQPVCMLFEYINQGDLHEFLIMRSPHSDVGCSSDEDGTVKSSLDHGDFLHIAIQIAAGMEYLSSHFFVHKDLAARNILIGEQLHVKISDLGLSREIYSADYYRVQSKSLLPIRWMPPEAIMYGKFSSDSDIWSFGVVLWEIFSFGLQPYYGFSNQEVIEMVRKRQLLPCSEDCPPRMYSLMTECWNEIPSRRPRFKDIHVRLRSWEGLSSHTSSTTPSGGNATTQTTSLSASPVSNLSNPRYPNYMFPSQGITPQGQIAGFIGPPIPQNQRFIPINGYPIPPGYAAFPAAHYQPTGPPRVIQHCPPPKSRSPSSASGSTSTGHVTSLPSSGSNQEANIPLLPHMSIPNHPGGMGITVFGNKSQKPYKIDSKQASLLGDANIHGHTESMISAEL
The experiment in a line: flow cytometry, A549 cells. As to the method:
as §1
For the molecule B1, the EC50 is 6.79 mg/L and the “MAX(MFI)” value came to 408000 MFI.

B2: the EC50 amounted to 1.32 mg/L and the “MAX(MFI)” value came out at 791000 MFI.

With B3, the EC50 turned out to be 0.93 mg/L and the “MAX(MFI)” value is 875000 MFI.

Another experiment addresses T1, cynomolgus ROR1 on CHO-K1-cynoROR1 cells. As to the kind of experiment: flow cytometry, CHO-K1-cynoROR1 cells. This is another data set of the same source. How it is done:
as §3, §1
Regarding B8, the Max was 26600.

With B4, the Max was 34800.

Molecule B5 yielded a Max of 34500.

The molecule B6 registered a Max of 34100.

B7 came in with a Max of 32700.

For the molecule B9, the Max was found to be 14400.

As for B10, the Max amounted to 24600.

As to B11, the Max worked out at 28000.

A further experiment addresses T3, human ROR1 on cells (HEK293T-hROR1, …). The experiment in a line: flow cytometry on PANC-1 cells, MFI (APC-A Median). How it is done: as §3, §1
A general note: A flow cytometer gives signals particle by particle.
Take B4: the “EC50 (read off the curve)” value was about 2 nM.

As to B5, the “EC50 (read off the curve)” value was about 4 nM.

For the molecule B6, the “EC50 (read off the curve)” value is about 2 nM.

Consider B7, for which the “EC50 (read off the curve)” value was about 8 nM.

The target is the same in the next experiment. As to the kind of experiment: flow cytometry, PANC-1 cells. As to the method:
as §1
As to B1, the EC50 stood at 11.3 mg/L and the “MAX(MFI)” value worked out at 462000 MFI.

B8 had a Max of 10200.

In the case of B4, the Max is 16200.

With B2, the 50% effective concentration (EC50) is 1.07 mg/L and the “MAX(MFI)” value worked out at 552000 MFI.

For B5, the Max worked out at 16700.

The molecule B6 showed a Max of 18300.

Turning to B7, the Max is 16400.

With B3, a half-maximal response (EC50) required 0.654 mg/L and the “MAX(MFI)” value was 653000 MFI.

B9: the Max came out at 4250.

As for B10, the Max was 9710.

Consider B11, for which the Max came out at 10200.

The target is the same in another experiment. As to the kind of experiment: flow cytometry, HEK293T-hROR1 cells. How it is done: as §1
In the case of B1, the concentration for a half-maximal effect (EC50) stood at 0.191 mg/L and the “MAX(MFI)” value was found to be 1.53e+07 MFI.

On to B2, for which the EC50 worked out at 0.267 mg/L and the “MAX(MFI)” value came out at 1.49e+07 MFI.

As to B3, the half-maximal effective concentration (EC50) came to 0.158 mg/L and the “MAX(MFI)” value was 1.35e+07 MFI.

Another experiment addresses T4, hu-ROR2-ECD-his (Acrobiosystems RO2-H52E5) (human, UniProt Q01974 34-403).
T4 construct: extracellular domain; bought protein; also called Human ROR2 his-tagged protein; Human ROR2, His Tag
The experiment in a line: ELISA, plate coated with hu-ROR2-his at 1 µg/mL. How it is done: as §2, with “1” for “Binding of recombinant anti-ROR1 antibodies to hu-ROR1-ECD-his was tested by ELISA. In brief, 1”, “hu-ROR2-ECD-his (Acrobiocystems, RO2-H52E5)” for “hu-ROR1-ECD-his”
For B1, the binding result is given as “no binding (tested: about 15 µg/ml)”.

As for B2, the binding result is “no binding (tested: about 15 µg/ml)”.

As to B3, the binding result is reported as “no binding (tested: about 15 µg/ml)”.

The target of the next experiment is T2, Human ROR1-ECD-his (Acro Biosystems …). As to the kind of experiment: BLI, ROR1-His on HIS1K sensor, antibody in solution. How it is done: In the example, binding kinetics of anti-ROR1 antibodies to soluble ROR1 protein were analyzed by using Bio-Layer Interferometry (BLI) analysis on Fortebio Octet Red384 instrument (Fortebio).
In BLI analysis, recombinant anti-ROR1 antibodies was serially diluted with 10× kinetics buffer (Fortebio). Human ROR1-His proteins were diluted to 20 nM. Then the diluted antibodies, ROR1 proteins and regeneration buffer (10 mM glycine HCl pH 1.5) were added to 96-well plates (Greiner). Rate constants for association and dissociation were measured using HIS1K sensor (Fortebio). The sensor surface was regenerated after each binding experiment with regeneration buffer. The traces were processed using Octet Data Analysis Software (version 11.0, Pall ForteBio, CA, USA).
In general terms: In BLI a coated tip is dipped into the sample, and binding shifts an interference pattern.
B1 came in with an equilibrium dissociation constant (Kd) of 14.1 nM, a koff of 0.00173 s⁻¹ and a kon of 123000 M⁻¹ s⁻¹.

In turn, B2 came in with a Kd of 6.83 nM, a koff of 0.00336 s⁻¹ and an on-rate constant (kon) of 492000 M⁻¹ s⁻¹.

Turning to B3, binding was put at a Kd of 11.1 nM, the off-rate (koff) was determined as 0.0031 s⁻¹ and the on-rate (kon) worked out at 278000 M⁻¹ s⁻¹.

For another experiment, the target named is T3, human ROR1 on cells (HEK293T-hROR1, …). As to the kind of experiment: flow cytometry, PANC-1 cells. The source holds these as a separate data set. As to the method: as §1
Binding activity of the variants to PANC-1 cells were tested using the same method described in example 5.1. The results were shown in FIGS. 7-8 and Table 11 and Table 12.
With B12, the TOP worked out at 86600.

What is called EC50 is the midpoint of the concentration-response curve. A lower EC50 goes with an effect from little substance. In general, EC50 (read off the curve) refers to the concentration needed to bring the measured effect to its halfway point. Read a high EC50 (read off the curve) as a less potent agent. As a reminder, the Kd is the free concentration of one partner at which half of the binding sites on the other are occupied at equilibrium, for simple one-to-one binding. Read a high Kd as lower affinity. As a reminder, the koff is the rate constant with which the complex falls apart. Lower therefore signals slow dissociation. As a reminder, the kon is the rate constant with which the complex forms.
